B1: FUT8 (parent)
chain: NWRYATGGWETVFRPVSETCTDRS
B2: CPXM2 (parent)
chain: EILGCPLPDPNNYYHRRNEMTTTD

Variants of: B1
Test: protein stability index of a GFP-peptide fusion (GPS, HEK-293T) (PSI 1-6); higher = more stable
Settings: c terminus: a fixed tail appended
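Further: lentivirally expressed fusions sorted by FACS into six bins by GFP to DsRed ratio, PSI derived from sequencing read proportions per bin multiplied by bin number.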

Protein stability index: each site, then its substitutions
S24: A 1.69 | L 2.3 | K 2.6 | P 2.33 | V 2.67 | T 2.03 | R 1.47 | N 2.44 | I 1.71 | Y 1.86 | M 1.96 | Q 2.72 | D 1.76 | H 1.64 | F 1.88
T21: A 1.39 | V 1.9 | G 1.47 | K 2.49 | L 2.43 | F 2.31 | M 3.38 | D 1.34 | E 1.55 | P 1.26 | H 1.56 | Y 1.84 | R 2.8
T19: E 2.86 | P 1.83 | M 1.21 | C 1.42 | K 1.84 | N 2.09 | Q 2.37 | Y 3.12 | S 2.5 | L 2.3 | I 2.22 | R 2.24 | G 2.72 | F 1.85
D22: T 3.48 | P 1.48 | K 2.12 | W 1.25 | V 1.54 | R 1.84 | C 1.93 | N 1.24 | Q 1.69 | I 2.98 | Y 2.07 | H 1.45 | S 2.43 | L 1.7 | M 1.9 | E 2.33
R23: A 2.36 | L 3.42 | T 2.02 | P 2.08 | S 1.56 | Y 2.49 | D 2.41 | K 1.92 | W 1.91 | V 2.89 | G 1.6 | F 1.77 | H 3.12 | M 2.34 | E 1.75 | N 1.44 | I 1.21
C20: M 2.33 | A 3.39 | W 3.63 | Q 1.84 | F 1.84 | P 1.81 | Y 2.24 | N 2.6 | D 2.3 | T 1.04 | V 1.88 | L 1.44 | H 4.01 | S 1.75 | I 1.63
E18: Y 2.18 | W 2.45 | Q 1.54 | N 1.75 | P 2.06 | V 2.76 | L 1.97 | M 1.4 | T 2.15 | R 1.8

Variants of: B2
Test: as above
Settings: c terminus: a fixed tail appended

Protein stability index: each site, then its substitutions
N11: L 2.98 | W 2.29 | H 3.19 | V 3.38 | K 3.47 | R 3.04 | Y 3.13 | P 3.84
D9: G 3.03 | R 3.34 | W 2.44 | N 3.18 | T 3.25 | K 2.85 | L 3.05
R16: T 3.48 | S 4.14
T23: K 3.46 | E 4.3 | G 3.29 | L 3.07 | P 3.67 | Q 3.54 | C 3.8 | R 3.37 | N 3.48
I2: G 5.13 | D 4.86 | P 4.87 | C 3.98 | W 3.82 | Q 4.76 | T 4.32
L7: C 3.83 | S 4.14 | M 3.59 | Y 3.61 | W 3.32 | Q 3.68 | V 3.31 | N 4.13 | G 3.48
P10: Y 2.91 | G 3.95 | L 2.8 | R 3.49 | C 3.26 | S 3.42 | V 3.46 | N 3.37 | M 3.44 | W 2.72 | D 3.88 | H 3.66 | K 3.41
E19: L 2.22 | G 3.59 | N 3.3 | F 2.62 | W 2.09 | S 3.46 | C 2.8 | M 2.48 | R 3.16 | K 2.83
P6: R 2.84 | H 2.94 | K 2.76 | M 2.07 | I 2.01 | S 3.4 | Q 2.92 | E 3.58
D24: M 2.28 | K 3.65 | I 1.82 | T 2.82 | E 3.53 | G 2.76 | L 2.46 | C 2.86 | A 2.61 | F 1.47 | V 3.02 | S 3.27 | W 1.86 | Y 2.29 | R 3.07
L3: M 4.05 | N 3.78 | K 4.48 | Y 3.7 | G 4.45 | S 4.41 | A 4.09 | R 4.3 | I 3.58 | E 4.39 | T 3.99 | H 4.16 | D 4.32 | C 4.07
Y14: R 3.92 | I 3.46 | D 4.31 | Q 3.96 | C 4.04 | M 3.57 | P 4.41 | E 4.59 | W 3.75
P8: L 2.66 | C 2.4 | T 3.12 | I 3.14 | M 2.47
M20: I 3.69 | Y 2.46 | T 4.6 | N 3.92 | W 3.12 | R 3.57 | Q 4.42
Y13: S 3.86 | G 4.08 | M 4 | W 2.9 | F 3.35 | H 4.18 | T 4.35 | A 4.21 | R 4.04 | E 4.29
T22: M 3.28 | N 3.47 | C 3.15 | R 3 | G 3.56 | Q 4.18 | L 2.69 | D 4.09 | P 3.22
E1: I 2.52 | L 2.63 | W 1.86 | K 3.18 | H 3.16 | R 3.59 | V 2.4 | G 3.58 | F 1.83 | N 3.42 | D 3.8
N12: I 3.05 | V 3.17 | Q 3.73 | E 3.85 | Y 3.35 | G 2.85 | T 3.17 | K 2.77 | W 2.79 | F 2.5 | S 3.09 | C 3.44 | R 3.35 | M 3.41
C5: F 3.65 | Y 2.96 | D 4.09 | H 3.91 | V 3.41 | S 4.17 | M 3.83 | N 3.61 | P 4.42 | W 2.72 | G 3.76
N18: P 3.21 | H 3.37 | E 4.01 | I 2.79 | W 2.16 | R 3.19 | A 3.3 | M 2.91 | F 2.41 | G 3.77 | S 3.26 | Q 3.7 | D 4.23
H15: W 2.91 | L 3.21 | Y 3.16 | E 3.62 | F 3.33 | R 3.31 | T 3.76 | D 4.42 | M 3.23 | V 3.1 | P 3.64 | K 3.76 | A 3.71
R17: S 3.88 | P 4.15 | M 3.8 | D 4.64 | C 2.98 | V 3.22 | Y 2.85 | N 4.04 | K 3.62 | F 2.48 | G 3.79
G4: P 4.03 | S 3.57 | N 2.93 | A 3.35 | Q 3.5 | V 3.41 | F 2.69 | M 3.15
T21: M 3.23 | G 3.55 | S 3.52 | D 4.25 | A 3.6 | Q 3.6 | F 2.77 | L 2.97 | H 2.91 | N 3.45 | R 3.05

Reference: the supplement of paper PMC10567573
